Numbering of substitutions follows the chain as printed.
Columns and labels:
Test in all cases: SPR
[1] = system: His6-AdiY (Escherichia coli K-12 MG1655); conditions: pH 6.0, phosphate; 1:4 DNA:protein; SPR (Biacore T200, SA chip), 25 C, 50 mM sodium phosphate pH 6.0-7.0 (50 mM citrate at pH 5.5 and 5.8), 250 mM NaCl, 2% glycerol, 2 mM DTT, 0.005% P20; 1:1 …
[2] = target: T1, His6-AdiY-H34A/H60A H34A;H60A (Escherichia coli K-12 MG1655) (UniProt P33234); conditions: SPR (Biacore T200, SA chip), 25 C, 50 mM sodium phosphate pH 6.0-7.0 (50 mM citrate at pH 5.5 and 5.8), 250 mM NaCl, 2% glycerol, 2 mM DTT, 0.005% P20; 1:1 …
T1 sequence: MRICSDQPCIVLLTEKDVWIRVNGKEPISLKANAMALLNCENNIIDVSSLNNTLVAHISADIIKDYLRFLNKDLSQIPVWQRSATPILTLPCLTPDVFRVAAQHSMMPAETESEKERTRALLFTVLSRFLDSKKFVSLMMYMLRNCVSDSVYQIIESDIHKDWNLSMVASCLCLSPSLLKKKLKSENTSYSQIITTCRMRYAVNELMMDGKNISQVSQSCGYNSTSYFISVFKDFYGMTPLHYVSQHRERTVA

[3] = target: T2, His6-AdiY (Escherichia coli K-12 MG1655) (UniProt P33234); conditions: SPR (Biacore T200, SA chip), 25 C, 50 mM sodium phosphate pH 6.0-7.0 (50 mM citrate at pH 5.5 and 5.8), 250 mM NaCl, 2% glycerol, 2 mM DTT, 0.005% P20; 1:1 …
T2 sequence: T1 sequence with A34H, A60H

PadiA (adiA promoter)
Kd [1]: 170 nM

PadiC (adiC promoter)
Kd [1]: 120 nM

TCTACGGTATGACGCCGCTGCATTATGTTAGTCAGCACAGAGAACGCACTGTCGCCTGATTTTTAACCTTAACGAAGAGCTATATTAATAACGGCATCAGCGATAACCCGGTCGATAATAATTCAACTATCGAATGCAGGCGTATGATATGACGTAATTTATTGTCACGAAGCTCGCCTTCGCAGGAGTTTAATT (double strand) [PadiC (adiC promoter)]
binding [2]: no binding
Kd [3]: 120 nM
binding [3]: binds

TGCTTACCCGGTTATGAAGGAATCTTCGTTGCGGGCAAGTATCTTCCGGCCTTTTCGGGCTGTAAAGCGCGTGAAAAACAAACATTTTTGAAATATTTAGTTTTATAAACAATACGTTATGTGATTATTTTAAATTATTTTCACTGCTTATTATCGACGGCTAAACTATTTTTTTGGCTGATACTGATATCGTCT (double strand) [PadiA (adiA promoter)]
binding [2]: no binding
Kd [3]: 170 nM
binding [3]: binds

— paper PMC12826058
